Data: patent US7005258
Each block holds one substance with its values, some of them ahead of it.

Key:
[1] = system: starfish p34^cdc2, tyrosine-phosphorylated, from G2-arrested oocytes
[2] = molecular target: Xenopus cdc2 from prophase oocytes, tyrosine phosphorylated (UniProt P24033)
Xenopus cdc2 (34 kD) = Xenopus cdc2 (34 kD) (UniProt P24033)
[3] = molecular target: Xenopus cdc2/cyclin B complex (UniProt P24033)
[4] = molecular target: Xenopus cdc2 (34 kD) (Xenopus laevis) (UniProt P24033); assay: co-immunoprecipitation with anti-cdc25 antibody against p13-Sepharose precipitate as total, quantified immunoblot
[5] = molecular target: Xenopus cyclin B2 (Xenopus laevis) (UniProt P13351); assay: as above
[6] = molecular target: Xenopus cdc2 (34 kD) (Xenopus laevis) (UniProt P24033); assay: co-immunoprecipitation, quantified immunoblots, metaphase eggs
[7] = molecular target: Xenopus cyclin B2 (Xenopus laevis) (UniProt P13351); assay: co-immunoprecipitation, quantified immunoblots
[8] = molecular target: GST-cdc25 A fusion protein (glutathione-S-transferase / human cdc25 A) (human) [GST: P08515]; assay: cell-based or functional assay

Xenopus cdc2 (34 kD) (Xenopus laevis), sequence (P24033 whole entry): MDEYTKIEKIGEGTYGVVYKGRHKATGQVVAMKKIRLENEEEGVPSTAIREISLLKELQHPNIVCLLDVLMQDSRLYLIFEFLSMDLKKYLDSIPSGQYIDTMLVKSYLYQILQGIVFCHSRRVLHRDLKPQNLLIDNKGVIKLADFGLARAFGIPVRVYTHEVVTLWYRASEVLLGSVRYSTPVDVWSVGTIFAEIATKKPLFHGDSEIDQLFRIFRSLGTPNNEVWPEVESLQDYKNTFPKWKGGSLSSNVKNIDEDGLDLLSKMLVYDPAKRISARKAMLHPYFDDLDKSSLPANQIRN
Xenopus cdc2 (34 kD), sequence (P24033 whole entry): as above
Xenopus cyclin B2 (Xenopus laevis), sequence (P13351 whole entry, the tested form may be a part): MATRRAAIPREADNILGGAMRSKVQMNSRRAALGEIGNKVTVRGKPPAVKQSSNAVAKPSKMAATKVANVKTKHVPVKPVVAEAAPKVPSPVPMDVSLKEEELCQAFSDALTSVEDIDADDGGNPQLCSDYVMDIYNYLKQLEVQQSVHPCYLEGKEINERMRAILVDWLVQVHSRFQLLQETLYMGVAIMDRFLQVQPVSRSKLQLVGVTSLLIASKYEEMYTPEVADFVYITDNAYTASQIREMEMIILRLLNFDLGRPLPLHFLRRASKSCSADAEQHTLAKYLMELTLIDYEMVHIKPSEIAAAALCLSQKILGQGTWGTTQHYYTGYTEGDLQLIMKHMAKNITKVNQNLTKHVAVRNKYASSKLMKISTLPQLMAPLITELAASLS
Xenopus cdc25 protein (p72), sequence (Q13972 whole entry): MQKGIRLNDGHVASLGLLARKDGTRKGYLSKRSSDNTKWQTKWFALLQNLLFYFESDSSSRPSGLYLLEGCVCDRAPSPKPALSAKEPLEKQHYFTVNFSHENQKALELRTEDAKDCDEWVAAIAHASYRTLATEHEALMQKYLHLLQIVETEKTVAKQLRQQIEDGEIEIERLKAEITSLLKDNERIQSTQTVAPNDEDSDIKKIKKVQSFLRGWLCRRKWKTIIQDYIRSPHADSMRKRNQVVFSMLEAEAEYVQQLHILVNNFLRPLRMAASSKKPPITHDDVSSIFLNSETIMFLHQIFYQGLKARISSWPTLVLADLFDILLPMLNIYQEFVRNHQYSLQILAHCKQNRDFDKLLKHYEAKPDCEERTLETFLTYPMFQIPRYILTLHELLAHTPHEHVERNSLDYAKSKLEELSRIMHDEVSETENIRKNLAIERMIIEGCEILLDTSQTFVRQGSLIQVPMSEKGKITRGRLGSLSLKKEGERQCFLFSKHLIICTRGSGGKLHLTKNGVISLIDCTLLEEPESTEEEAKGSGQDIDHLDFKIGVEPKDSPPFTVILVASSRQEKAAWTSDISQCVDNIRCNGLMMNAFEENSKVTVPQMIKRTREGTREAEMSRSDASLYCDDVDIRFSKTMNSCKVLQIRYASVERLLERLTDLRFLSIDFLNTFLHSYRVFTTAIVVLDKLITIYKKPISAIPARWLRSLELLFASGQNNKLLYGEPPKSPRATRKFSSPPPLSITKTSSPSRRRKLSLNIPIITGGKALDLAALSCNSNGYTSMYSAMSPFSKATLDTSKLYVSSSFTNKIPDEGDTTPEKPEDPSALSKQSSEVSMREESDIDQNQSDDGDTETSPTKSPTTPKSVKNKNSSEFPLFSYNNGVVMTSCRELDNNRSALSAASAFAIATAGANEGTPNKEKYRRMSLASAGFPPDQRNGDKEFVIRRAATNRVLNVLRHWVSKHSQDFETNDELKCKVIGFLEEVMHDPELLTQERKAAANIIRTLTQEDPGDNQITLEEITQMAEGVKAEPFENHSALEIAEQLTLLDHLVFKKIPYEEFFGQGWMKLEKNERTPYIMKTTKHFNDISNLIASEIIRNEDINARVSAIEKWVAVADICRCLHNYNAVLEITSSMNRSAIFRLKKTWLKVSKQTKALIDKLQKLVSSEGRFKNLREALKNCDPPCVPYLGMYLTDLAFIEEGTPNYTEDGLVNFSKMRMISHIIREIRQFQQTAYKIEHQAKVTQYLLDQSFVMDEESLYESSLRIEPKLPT
Xenopus cdc2/cyclin B complex, sequence (P24033 whole entry, chain 1 of 2): as the sequence (P24033 whole entry) above
Xenopus cdc2/cyclin B complex, sequence (chain, as listed by the source, chain 2 of 2): as the sequence (P13351 whole entry, the tested form may be a part) above
Xenopus cdc2 from prophase oocytes, tyrosine phosphorylated, sequence (P24033 whole entry): as the sequence (P24033 whole entry) above

Substance: GST-cdc25 A fusion protein (glutathione-S-transferase / human cdc25 A)
- tyrosine dephosphorylation of p34^cdc2 [1]: Treatment with purified GST-cdc25A protein induced almost complete tyrosine dephosphorylation of p34^cdc2

Substance: Xenopus cdc25 protein (p72)
- histone H1 kinase activity of inactive prophase p13-bound cdc2 [2]: Both prophase and metaphase cdc25 stimulated histone H1 kinase activity 12-fold
- histone H1 kinase activity in anti-cdc25 immunoprecipitates (Xenopus cdc2 (34 kD)): Histone H1 kinase activity was detected in anti-cdc25 immunoprecipitates from metaphase eggs
- histone H1 kinase activity of cdc2 that is inactive in the absence of cyclin (eggs activated in the presence of cycloheximide) (Xenopus cdc2 (34 kD)): In neither case did p72 have any effect on the histone H1 kinase activity of cdc2
- relative metaphase kinase activity in p13-Sepharose precipitates and anti-cdc25 immunoprecipitates (Xenopus cdc2 (34 kD)): approximately 20-fold different
- histone H1 kinase activity of fully activated cdc2/cyclin from metaphase unfertilized eggs [3]: In neither case did p72 have any effect on the histone H1 kinase activity of cdc2

- fold, cdc2 in p13-Sepharose precipitate over cdc2 in anti-cdc25 immunoprecipitate [4]: 20 fold
- fold, cyclin B2 in p13-Sepharose precipitates over cyclin B2 in anti-cdc25 immunoprecipitate [5]: 6 fold
- percent of the cellular content of cdc25 present in anti-cdc2 immunoprecipitates [6]: 20%
- percent of the total cellular cdc2 present in anti-cdc25 immunoprecipitates [6]: 5%
- percent of the full cellular content of cdc25 present in anti-cyclin B2 immunoprecipitates [7]: 20%
- percent of the total population of cyclin B2 associated with cdc25 [7]: 17%
Substance: Xenopus cdc25 protein (p72) (from UniProt Q13972) (enzyme)

- amount of cyclin B1 at which activation of cdc25 A (10 pmoles) plateaus, RCML phosphatase assay [8]: 10 pmol
- phosphatase activity of cdc25 A in the presence of p13 [8]: 8 fold
- tyrosine phosphatase activity of cdc25 A against 32P-labelled RCML [8]: 4 fold
Substance: human cyclin B1 expressed as fusion protein with GST (from UniProt P14635 1-433)

- tyrosine phosphatase activity of cdc25 A against 32P-labelled RCML [8]: 4 fold
Substance: human cyclin B2 expressed as fusion protein with GST (from UniProt O95067 1-398)
